# Experimental data from PMC5703867, “Development of Novel Promiscuous Anti-Chemokine Peptibodies for Treating Autoimmunity and Inflammation” (Frontiers in Immunology, 2017).
# Where no end group is shown, it is not given here. The star is where a group is joined. Biotin = O=C1N[C@H]2[C@H](CS[C@H]2CCCCC(=O)*)N1
# Biological target: T1, CCL2 (human, UniProt P13500 24-99)
# T1 construct: CCL2, human, recombinant; source: bought: PeproTech
# Experiment: ELISA; chemokine coated on maxisorp plates (0.1-1.0 µg/ml in 0.1 M NaHCO3, pH 8.6), BSA block, biotinylated synthetic peptides in TBST-BSA for 45 min at RT, detected with HRP-streptavidin or AP-anti-biotin; fold binding at 10 and 100 ng/ml peptide
# Conditions: both partners purified
# T1 sequence (P13500 24-99): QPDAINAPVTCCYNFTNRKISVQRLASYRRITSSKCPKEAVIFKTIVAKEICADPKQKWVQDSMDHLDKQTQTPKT
row,Binder,binding result
1,"LDYPIPQTVLHHGGGSK(Biotin)G (also: biotin at C-terminus, format X12GGGSK-biotin-G, BKT120 peptide; C-terminal tail of the linear peptide format X12GGGSK-biotin-G; also called BTK120; source: synthetic peptide (Weizmann Institute of Science)) [BKT120 biotinylated synthetic peptide]",binds
2,"SIPSHSIHSAKAGGGSK(Biotin)G (also: biotin at C-terminus, format X12GGGSK-biotin-G, BKT130 peptide; C-terminal tail of the linear peptide format X12GGGSK-biotin-G; also called BTK130; source: synthetic peptide (Weizmann Institute of Science)) [BKT130 biotinylated synthetic peptide]",binds
